66 substances from patent publication US12084522B2, “Peptides, combination of peptides, and cell based medicaments for use in immunotherapy against urinary bladder cancer and other cancers” (Immatics Biotechnologies GmbH, priority 2016, dated 2024) can be followed below.

The target of the assay is HLA-A*02:01 (Homo sapiens, UniProt P04439, D140Y/D185E/D98H/E176V/E277Q/G131W/G231S/I119V/I121R/I166T/I218V/L300P/L318F/N151K/N90K/P208A/P217A/Q86G/Q94H/R138H/R169H/T345S). In words: MHC binding assay (UV-ligand exchange, β2m ELISA, peptide exchange yield). To be noted: binding to HLA-A*02:01 ranged by peptide exchange yield (UV-ligand exchange, β2m ELISA). The source says:
Candidate peptides for T cell based therapies according to the present invention were further tested for their MHC binding capacity (affinity). The individual peptide-MHC complexes were produced by UV-ligand exchange, where a UV-sensitive peptide is cleaved upon UV-irradiation, and exchanged with the peptide of interest as analyzed. Only peptide candidates that can effectively bind and stabilize the peptide-receptive MHC molecules prevent dissociation of the MHC complexes. To determine the yield of the exchange reaction, an ELISA was performed based on the detection of the light chain (β2 m) of stabilized MHC complexes. The assay was performed as generally described in Rodenko et al. (Rodenko et al., 2006).
96 well MAXISorp plates (NUNC) were coated over night with 2 μg/ml streptavidin in PBS at room temperature, washed 4× and blocked forth at 37° C. in 2% BSA containing blocking buffer. Refolded HLA-A*02:01/MLA-001 monomers served as standards, covering the range of 15-500 ng/ml. Peptide-MHC monomers of the UV-exchange reaction were diluted 100 fold in blocking buffer. Samples were incubated for 1 h at 37° C., washed four times, incubated with 2 ug/ml HRP conjugated anti-β2 m for 1 h at 37° C., washed again and detected with TMB solution that is stopped with […]. Absorption was measured at 450 nm. Candidate peptides that show a high exchange yield (preferably higher than 50%, most preferred higher than 75%) are generally preferred for a generation and production of antibodies or fragments thereof, and/or T cell receptors or fragments thereof, as they show sufficient avidity to the MHC molecules and prevent dissociation of the MHC complexes.
Regarding “1 (ILLQASVQV; listed as Homo sapiens) [compound 1]”, the Peptide exchange result was “++++ (>75% = ++++)”. In the case of “2 (GLLKAYSIRTA; listed as Homo sapiens) [compound 2]” it was “+++ (>50 = +++)”. The value for “3 (YLDEIPPKFSM; listed as Homo sapiens) [compound 3]” was “++++ (>75% = ++++)”; that for “7 (QMFEGQILDV; listed as Homo sapiens) [compound 7]” was “+++ (>50 = +++)”. For the substance “8 (ALSFSSSAGPGLLKA; listed as Homo sapiens) [compound 8]”, the Peptide exchange entry was “+++ (>50 = +++)”. Consider “11 (AMAELRVVV; listed as Homo sapiens) [compound 11]”, for which the Peptide exchange result was “++++ (>75% = ++++)”. As to “12 (GVALTVTGV; listed as Homo sapiens) [compound 12]”, the Peptide exchange result is listed as “++++ (>75% = ++++)”. Regarding “13 (FLEEKEQAAL; listed as Homo sapiens) [compound 13]”, the Peptide exchange result is reported as “+++ (>50 = +++)”. As for “18 (SIAAYNPVV; listed as Homo sapiens) [compound 18]”, the Peptide exchange entry is listed as “++++ (>75% = ++++)”. As to “19 (SLATTLTKI; listed as Homo sapiens) [compound 19]”, the Peptide exchange result is “+++ (>50 = +++)”. On to “20 (YLPDSLTQL; listed as Homo sapiens) [compound 20]”, for which the Peptide exchange result is recorded as “++++ (>75% = ++++)”. With “21 (TLIEDDALNGA; listed as Homo sapiens) [compound 21]”, the Peptide exchange entry is “+++ (>50 = +++)”.

With “25 (SLDSSGFSL; listed as Homo sapiens) [compound 25]”, the Peptide exchange entry was “+++ (>50 = +++)”. On to “26 (GLALLYSGV; listed as Homo sapiens) [compound 26]”, for which the Peptide exchange entry was “++++ (>75% = ++++)”. Take “28 (GLIDSLMAYV; listed as Homo sapiens) [compound 28]”: the Peptide exchange entry was “++++ (>75% = ++++)”. For the substance “31 (SLFDGIATGL; listed as Homo sapiens) [compound 31]”, the Peptide exchange result is given as “++++ (>75% = ++++)”. In the case of “32 (YQAPDIDVQL; listed as Homo sapiens) [compound 32]”, the Peptide exchange entry was “+++ (>50 = +++)”.

In the case of “33 (VLFGEITRL; listed as Homo sapiens) [compound 33]”, the Peptide exchange result was “+++ (>50 = +++)”. For the substance “34 (ALLDEQQVNV; listed as Homo sapiens) [compound 34]”, the Peptide exchange result is “+++ (>50 = +++)”. “35 (KLPEPPPLA; listed as Homo sapiens) [compound 35]”: the Peptide exchange entry is recorded as “+++ (>50 = +++)”. With “36 (ALWDEFNQL; listed as Homo sapiens) [compound 36]”, the Peptide exchange entry is listed as “+++ (>50 = +++)”. In the case of “37 (ILSAILVHL; listed as Homo sapiens) [compound 37]”, the Peptide exchange result is recorded as “+++ (>50 = +++)”. With “38 (TLTSIIVAV; listed as Homo sapiens) [compound 38]”, the Peptide exchange result was “+++ (>50 = +++)”. The value for “39 (AMASHLTST; listed as Homo sapiens) [compound 39]” was “+++ (>50 = +++)”; that for “40 (VIADRVVTV; listed as Homo sapiens) [compound 40]” was “+++ (>50 = +++)”; that for “42 (FLIDASQRV; listed as Homo sapiens) [compound 42]” was “+++ (>50 = +++)”. Regarding “43 (FLIESKLLSL; listed as Homo sapiens) [compound 43]”, the Peptide exchange entry is “++++ (>75% = ++++)”. In the case of “44 (GLAQDPKSLQL; listed as Homo sapiens) [compound 44]” it was “+++ (>50 = +++)”.

With “45 (IIDSSPTAL; listed as Homo sapiens) [compound 45]”, the Peptide exchange result is recorded as “++ (>20% = ++)”. Consider “47 (VLMDDTDPL; listed as Homo sapiens) [compound 47]”, for which the Peptide exchange entry is reported as “+++ (>50 = +++)”.

On to “48 (VLMDDTDPLV; listed as Homo sapiens) [compound 48]”, for which the Peptide exchange result is reported as “+++ (>50 = +++)”.

Turning to “49 (SLIGGTNFV; listed as Homo sapiens) [compound 49]”, the Peptide exchange result was “+++ (>50 = +++)”. Turning to “52 (SLATLEGIQL; listed as Homo sapiens) [compound 52]”, the Peptide exchange result is given as “+++ (>50 = +++)”. As for “54 (ALNDEINFL; listed as Homo sapiens) [compound 54]”, the Peptide exchange entry is “+++ (>50 = +++)”.

Turning to “55 (KLLETKWTL; listed as Homo sapiens) [compound 55]”, the Peptide exchange result is recorded as “++++ (>75% = ++++)”. “56 (ILLRDLPTL; listed as Homo sapiens) [compound 56]”: the Peptide exchange result was “+++ (>50 = +++)”. For the substance “58 (GLDSSVNVQGSVL; listed as Homo sapiens) [compound 58]”, the Peptide exchange result is listed as “+++ (>50 = +++)”. The value for “62 (GQLDFSEFL; listed as Homo sapiens) [compound 62]” was “+++ (>50 = +++)”. With “63 (LLAGLLVGV; listed as Homo sapiens) [compound 63]”, the Peptide exchange result is “+++ (>50 = +++)”.

Turning to “64 (GLLSQGSPL; listed as Homo sapiens) [compound 64]”, the Peptide exchange result was “+++ (>50 = +++)”. In the case of “65 (IITDLLRSV; listed as Homo sapiens) [compound 65]” it was “++++ (>75% = ++++)”; in that of “66 (SLWEENQAL; listed as Homo sapiens) [compound 66]”, “+++ (>50 = +++)”; in that of “67 (FLTPPLLSV; listed as Homo sapiens) [compound 67]”, “++++ (>75% = ++++)”. As to “68 (TMIVSLAAV; listed as Homo sapiens) [compound 68]”, the Peptide exchange result is reported as “+++ (>50 = +++)”. Take “69 (QIWDKILSV; listed as Homo sapiens) [compound 69]”: the Peptide exchange entry was “+++ (>50 = +++)”. Turning to “70 (KLAEISLGV; listed as Homo sapiens) [compound 70]”, the Peptide exchange entry is reported as “++ (>20% = ++)”. The value for “71 (LLSEDFVSV; listed as Homo sapiens) [compound 71]” was “++ (>20% = ++)”. As for “72 (SLFTGLRSI; listed as Homo sapiens) [compound 72]”, the Peptide exchange result was “+++ (>50 = +++)”. “73 (VLKVFLENV; listed as Homo sapiens) [compound 73]”: the Peptide exchange entry is given as “++++ (>75% = ++++)”. The value for “74 (LLQEGEVYSA; listed as Homo sapiens) [compound 74]” was “+++ (>50 = +++)”; that for “76 (AVVSSVNTV; listed as Homo sapiens) [compound 76]” was “+++ (>50 = +++)”. Take “77 (KVFGGFQVV; listed as Homo sapiens) [compound 77]”: the Peptide exchange result is given as “++++ (>75% = ++++)”. On to “78 (FIPDFAVAI; listed as Homo sapiens) [compound 78]”, for which the Peptide exchange result is “++++ (>75% = ++++)”.

“79 (FLDPATPRV; listed as Homo sapiens) [compound 79]”: the Peptide exchange entry is reported as “+++ (>50 = +++)”. On to “80 (ILLDTPLFLL; listed as Homo sapiens) [compound 80]”, for which the Peptide exchange result is recorded as “+++ (>50 = +++)”. Regarding “81 (SLDKGTLYI; listed as Homo sapiens) [compound 81]”, the Peptide exchange entry was “+++ (>50 = +++)”. As to “82 (NLHNSYYSV; listed as Homo sapiens) [compound 82]”, the Peptide exchange result is recorded as “+++ (>50 = +++)”. Consider “83 (VILDKYYFL; listed as Homo sapiens) [compound 83]”, for which the Peptide exchange entry is “++++ (>75% = ++++)”.

For the substance “84 (ALDPASISV; listed as Homo sapiens) [compound 84]”, the Peptide exchange entry is “+++ (>50 = +++)”. The value for “85 (HLLDSKVPSV; listed as Homo sapiens) [compound 85]” was “+++ (>50 = +++)”; that for “86 (FLISLIISV; listed as Homo sapiens) [compound 86]” was “+++ (>50 = +++)”; that for “87 (RLLELLQEA; listed as Homo sapiens) [compound 87]” was “++++ (>75% = ++++)”.

For “88 (ALASLENHV; listed as Homo sapiens) [compound 88]”, the Peptide exchange result was “+++ (>50 = +++)”.

For the substance “89 (YLFPETEFI; listed as Homo sapiens) [compound 89]”, the Peptide exchange entry is “+++ (>50 = +++)”.

Take “90 (GMTELYFQL; listed as Homo sapiens) [compound 90]”: the Peptide exchange entry is reported as “+++ (>50 = +++)”.

For the substance “91 (NLDAATYQV; listed as Homo sapiens) [compound 91]”, the Peptide exchange result is recorded as “+++ (>50 = +++)”.
